Assay results reported in IntAct's records for PubMed 27773430.

Tests used:
[1] = molecular target: casp2_rat Casp2 (UniProt P55215)
[2] = molecular target: pidd1_human PIDD1 (UniProt Q9HB75)
Sequence of pidd1_human PIDD1 (Q9HB75 whole entry): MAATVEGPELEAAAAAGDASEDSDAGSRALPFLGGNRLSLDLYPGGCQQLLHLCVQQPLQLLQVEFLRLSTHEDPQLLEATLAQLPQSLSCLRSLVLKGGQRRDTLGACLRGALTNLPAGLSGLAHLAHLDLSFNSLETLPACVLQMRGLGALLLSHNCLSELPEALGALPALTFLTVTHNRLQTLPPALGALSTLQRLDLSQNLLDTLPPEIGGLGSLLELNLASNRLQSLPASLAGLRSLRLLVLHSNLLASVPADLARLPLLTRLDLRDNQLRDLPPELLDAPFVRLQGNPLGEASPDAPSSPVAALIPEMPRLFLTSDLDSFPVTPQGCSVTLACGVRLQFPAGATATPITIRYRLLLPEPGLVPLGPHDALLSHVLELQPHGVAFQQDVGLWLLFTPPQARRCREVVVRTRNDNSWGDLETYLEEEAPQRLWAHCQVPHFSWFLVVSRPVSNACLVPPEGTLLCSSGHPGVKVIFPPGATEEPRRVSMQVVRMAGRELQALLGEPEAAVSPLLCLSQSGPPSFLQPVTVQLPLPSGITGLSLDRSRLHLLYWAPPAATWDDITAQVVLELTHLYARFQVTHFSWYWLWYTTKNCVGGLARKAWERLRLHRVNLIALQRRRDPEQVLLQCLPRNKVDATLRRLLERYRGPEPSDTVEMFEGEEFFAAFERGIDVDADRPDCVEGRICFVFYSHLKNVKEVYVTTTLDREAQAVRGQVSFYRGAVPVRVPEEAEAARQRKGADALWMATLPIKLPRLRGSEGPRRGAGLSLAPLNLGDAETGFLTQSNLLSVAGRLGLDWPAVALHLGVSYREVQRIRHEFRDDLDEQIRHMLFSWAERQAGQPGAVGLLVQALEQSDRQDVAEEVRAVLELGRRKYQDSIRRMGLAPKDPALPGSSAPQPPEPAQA

Sequence of casp2_rat Casp2 (P55215 whole entry): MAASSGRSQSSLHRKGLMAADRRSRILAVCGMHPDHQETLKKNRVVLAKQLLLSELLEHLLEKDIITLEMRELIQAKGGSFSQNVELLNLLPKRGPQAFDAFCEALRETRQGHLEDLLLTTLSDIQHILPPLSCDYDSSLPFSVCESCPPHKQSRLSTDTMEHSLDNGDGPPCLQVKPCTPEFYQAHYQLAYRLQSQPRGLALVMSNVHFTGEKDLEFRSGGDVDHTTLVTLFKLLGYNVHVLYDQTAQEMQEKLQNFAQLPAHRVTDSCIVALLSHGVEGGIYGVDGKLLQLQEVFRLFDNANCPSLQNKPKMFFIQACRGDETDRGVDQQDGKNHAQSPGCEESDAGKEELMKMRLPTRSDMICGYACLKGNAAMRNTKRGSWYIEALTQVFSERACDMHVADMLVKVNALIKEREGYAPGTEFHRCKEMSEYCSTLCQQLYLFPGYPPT
Sequence of Death domain-containing protein CRADD (Homo sapiens), P78560 R170H (P78560 whole entry R170H, the tested form may be a part): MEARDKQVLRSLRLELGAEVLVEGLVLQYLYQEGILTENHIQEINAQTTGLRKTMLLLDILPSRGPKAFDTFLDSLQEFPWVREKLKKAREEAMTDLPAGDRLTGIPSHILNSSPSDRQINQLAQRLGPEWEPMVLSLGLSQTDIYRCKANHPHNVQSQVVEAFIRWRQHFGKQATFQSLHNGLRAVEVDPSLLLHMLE
Sequence of Death domain-containing protein CRADD (Homo sapiens), P78560 F164C (P78560 whole entry F164C, the tested form may be a part): as the sequence (P78560 whole entry R170H, the tested form may be a part) above, with F164C, H170R counted along it
Sequence of Death domain-containing protein CRADD (Homo sapiens), P78560 R170C (P78560 whole entry R170C, the tested form may be a part): as the sequence (P78560 whole entry R170H, the tested form may be a part) above, with H170C counted along it
Sequence of Death domain-containing protein CRADD (Homo sapiens), P78560 G128R (P78560 whole entry G128R, the tested form may be a part): as the sequence (P78560 whole entry R170H, the tested form may be a part) above, with G128R, H170R counted along it

| Substance | effect of a mutation on the interaction [1] | effect of a mutation on the interaction [2] |
| --- | --- | --- |
| Death domain-containing protein CRADD (Homo sapiens), P78560 F164C | with no effect | with no effect |
| Death domain-containing protein CRADD (Homo sapiens), P78560 G128R | decreasing interaction strength | disrupting interaction strength |
| Death domain-containing protein CRADD (Homo sapiens), P78560 R170C | decreasing interaction strength | decreasing interaction strength |
| Death domain-containing protein CRADD (Homo sapiens), P78560 R170H | decreasing interaction strength | decreasing interaction strength |
